In the supplement of paper PMC10724198:

How the values were obtained:
Saccharomyces cerevisiae [1] = assay: protein stability index of tFT-peptide fusion in wild type (PSI (0-1 scale)); higher = more stable (slower turnover); conditions: genetic background: wild type
Description: (§1)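 MPS profiling in S. cerevisiae of two library types built from selected 12-aa C-degron peptides (IN1, IN2, LN1, LN3, VN2, R1-R5, W1-W3, Atg1 and Rpa12 C-termini): saturation mutagenesis libraries and C-terminal +1 capping libraries (13 aa). Each peptide is fused to the C-terminus of a sfGFP-mCherry timer, after a GGGS linker. Cells are FACS-sorted into 8 mCherry/sfGFP bins and sequenced. PSI runs from 0 (unstable) to 1 (stable), measured once in wild type and in the das1Δ or doa10Δ background.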

Saccharomyces cerevisiae [2] = assay: protein stability index of tFT-peptide fusion in deletion strain of DAS1 (PSI (0-1 scale)); higher = more stable (slower turnover)
Description: as §1
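For protein stability index of tFT-peptide fusion in deletion strain of DAS1 in this document: PSI is a weighted mean of each variant's read distribution over the sorted stability bins, computed only for variants having over 10 reads in total.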
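For protein stability index of tFT-peptide fusion in wild type in this document: PSI derived as read-weighted mean over the 8 sorting bins, only variants exceeding 10 total reads kept, mCherry placed adjacent to the peptide and sfGFP distal.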

Sequence	protein stability index (Saccharomyces cerevisiae [1])	protein stability index (Saccharomyces cerevisiae [2])
KKHKKGQKQIIN	0.642	0.584
LKILRQKMNHQNY	0.595	0.705
LVVYLSCVACRN	0.0192	0.0464
VRGAVGGRRLVG	0.641	0.675
VRGNVGGWRLVG	0.109	0.667
ARRRVGLWRGAS	0.538	0.723
RLIQPLPVDFLN	0.716	0.624
LKICRQKMNHQN	0.254	0.722
PDKRIHLIKLLN	0.0865	0.589
LKFLRQKMNHQN	0.166	0.697
PSLAASFWRVEG	0.672	0.687
ESMRWTFRYWVN	0.0849	0.56
PDKRNHNIKLLN	0.172	0.602
KKHKKGQKQKIH	0.114	0.662
PSLAFSFWRVVG	0.111	0.676
ARWRVGSWRGAS	0.641	0.692
CTSCGYKFVTNN	0.495	0.692
PDKRNHLIKLLD	0.666	0.611
FSMRWTFRYWVE	0.502	0.473
FSMRQTFRYWVN	0.0909	0.558

Sequence	protein stability index (Saccharomyces cerevisiae [1])	protein stability index (Saccharomyces cerevisiae [2])
LKILRRKMNHQN	0.216	0.648
VRGFVGGWRLVG	0.145	0.691
LVVYLACVACIN	0.0186	0.041
LTVYLSCVACIN	0.0165	0.0375
CTSCGYKFGTNN	0.688	0.693
RLIQPLPVPFLN	0.313	0.607
VTGAVGGWRLVG	0.141	0.672
RLIQPLPVQFLK	0.613	0.881
KKHKKGQKQKQN	0.264	0.583
LKILRQKMNHQN	0.192	0.674
PDKRNHLIKLRN	0.623	0.672
FSMRWTFRYWVT	0.225	0.469
FSMRWTFRYMVN	0.0804	0.577
VRGAVGGWRLVH	0.233	0.666
RLIQPLPVNFLN	0.0915	0.579
NKILRQKMNHQN	0.113	0.701
CSMRWTFRYWVN	0.0623	0.573
FSMRWTFRYWSN	0.313	0.538
CTSCLYKFRTNN	0.185	0.675
ARWRVGLWQGAS	0.602	0.578

Sequence	protein stability index (Saccharomyces cerevisiae [1])	protein stability index (Saccharomyces cerevisiae [2])
KKHKKGQKGKIN	0.563	0.584
ARWRVGLWRGASG	0.662	0.674
PSLLASFWRVVG	0.145	0.695
CTSCGPKFRTNN	0.598	0.674
FSMRGTFRYWVN	0.106	0.608
PDKRNCLIKLLN	0.148	0.586
CTLCGYKFRTNN	0.278	0.72
VRGAVGGWYLVG	0.603	0.691
KKHTKGQKQKIN	0.129	0.622
LKILRQKMKHQN	0.568	0.687
FSMRHTFRYWVN	0.0782	0.588
PDKRNYLIKLLN	0.119	0.601
RLIQPLIVQFLN	0.0468	0.542
PSLCASFWRVVG	0.129	0.68
PDPRNHLIKLLN	0.15	0.582
PDKRNHLIKHLN	0.0778	0.601
VRGVVGGWRLVG	0.176	0.679
PDKRNHGIKLLN	0.41	0.587
PSLAASFWRQVG	0.146	0.653
